Usually EC50 stands for the concentration giving half of the maximal effect. Higher therefore signals weaker potency.

One test deals with T1, mbp-NP632 fusion protein (Marburg virus Musoke-80, UniProt P27588).
T1 construct: source: E. coli (pE), purified
As to the kind of experiment: ELISA. As to conditions: both partners purified. On the technique in general: An ELISA detects its analyte on a solid surface through an enzyme-linked reagent.

Test [1] deals with T2, nluc-NP632 fusion protein (Marburg virus Musoke-80, UniProt P27588).
T2 construct: source: E. coli, cytosolic (pENCO derivative), purified
As to the kind of experiment: ELISA. As to conditions: both partners purified.

T1 sequence (P27588 632-695): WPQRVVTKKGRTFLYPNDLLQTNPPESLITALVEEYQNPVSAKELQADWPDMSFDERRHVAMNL

B1: sdAb C–Gaussia luciferase fusion (glucibody, pecan35) (VHH)
VHH: KVQLQESGGGLVQVGGSLRLSCKASGFTFRSSAMGWYRRAPGKQRELVASLTTTGTADYGDFVKGRFTISRDNAENTVDLHMNSLKPEDTAVYYCHEDPYGMESLRYWGQGTQVTVSS
notes: also called sdAb C glucibody; sdAb C–gluc; source: E. coli Tuner + pRARE, periplasmic (pecan35), purified
For the molecule B1, the concentration for a half-maximal effect (EC50) with mbp-NP632 fusion protein amounted to 22.3 nM.

B2: sdAb C as a BAP fusion (from pecan126) (VHH)
VHH: KVQLQESGGGLVQVGGSLRLSCKASGFTFRSSAMGWYRRAPGKQRELVASLTTTGTADYGDFVKGRFTISRDNAENTVDLHMNSLKPEDTAVYYCHEDPYGMESLRYWGQGTQVTVSS
notes: also called wild-type sdAb C; source: E. coli HBV88 (pecan126), purified
Take B2: the response in test [1] was half-maximal at 26.6 nM (EC50).

B3: sdAb B–Gaussia luciferase fusion (glucibody, pecan35) (VHH)
VHH: KVQLQESGGGLVQAGGSLRLSCAASGGTFSINTLGWYRRAPGKEREFVARISSGGITRYADSVKGRFTISRDNGKNTVYLDMNSLKPEDTAVYYCMYRNWGGGLDVYWGQGTQVTVSS
notes: also called sdAb B glucibody; sdAb B–gluc; source: E. coli Tuner + pRARE, periplasmic (pecan35), purified
With B3, the EC50 in the test with mbp-NP632 fusion protein came out at 189 nM.

B4: sdAb B as a BAP fusion (from pecan126) (VHH)
VHH: KVQLQESGGGLVQAGGSLRLSCAASGGTFSINTLGWYRRAPGKEREFVARISSGGITRYADSVKGRFTISRDNGKNTVYLDMNSLKPEDTAVYYCMYRNWGGGLDVYWGQGTQVTVSS
notes: also called wild-type sdAb B; source: E. coli HBV88 (pecan126), purified
Molecule B4 displayed a concentration for a half-maximal effect (EC50) in test [1] of 28.5 nM.

B5: sdAb A–Gaussia luciferase fusion (glucibody, pecan35) (VHH)
VHH: EVKLQESGGGLVQAGESLRLSCAVPPEVFDIRTVAWYRQVPLGKGRELLSSITPWNKTTYEDSVKDRFTISRDNAKYTVYLQMNDLKPEDTAVYYCAQGWGIASMRYWGQGTQVTVSS
notes: also called sdAb A glucibody; sdAb A–gluc; source: E. coli Tuner + pRARE, periplasmic (pecan35), purified
B5 showed a half-maximal effective concentration (EC50) in the test with mbp-NP632 fusion protein of 15.4 nM.

B6: sdAb A as a BAP fusion (from pecan126) (VHH)
VHH: EVKLQESGGGLVQAGESLRLSCAVPPEVFDIRTVAWYRQVPLGKGRELLSSITPWNKTTYEDSVKDRFTISRDNAKYTVYLQMNDLKPEDTAVYYCAQGWGIASMRYWGQGTQVTVSS
notes: also called wild-type sdAb A; source: E. coli HBV88 (pecan126), purified
B6: the EC50 in test [1] came out at 12.8 nM. This counts as double-digit nanomolar.

The values above are taken from article PMC5630700 (Frontiers in Immunology, 2017).
